From PMC9482650, “Quantitative fragmentomics allow affinity mapping of interactomes” (Nature Communications, 2022)
Substitutions are numbered along the chain they refer to.

T1: APBA1_2, Q02410
T1 sequence (Q02410 742-832, limits assumed, looked up): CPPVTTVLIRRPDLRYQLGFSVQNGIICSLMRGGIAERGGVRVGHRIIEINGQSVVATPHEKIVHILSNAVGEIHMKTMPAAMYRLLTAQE

T2: SNTA1, Q13424
T2 sequence (Q13424 82-180, limits assumed, looked up): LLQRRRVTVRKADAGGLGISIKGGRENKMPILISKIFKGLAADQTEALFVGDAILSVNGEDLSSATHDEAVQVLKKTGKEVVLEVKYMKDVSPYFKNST

T3: RHPN1, Q8TCX5
T3 sequence (Q8TCX5 508-602, limits assumed, looked up): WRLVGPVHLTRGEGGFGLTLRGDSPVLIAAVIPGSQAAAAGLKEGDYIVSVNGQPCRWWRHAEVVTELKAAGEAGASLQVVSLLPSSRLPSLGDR

T4: HTRA3, P83110
T4 sequence (P83110 354-453, limits assumed, looked up): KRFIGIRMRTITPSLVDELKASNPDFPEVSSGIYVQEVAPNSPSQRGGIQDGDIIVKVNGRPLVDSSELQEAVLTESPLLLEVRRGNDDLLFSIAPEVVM

T5: LIN7B, Q9HAP6
T5 sequence (Q9HAP6 88-185, limits assumed, looked up): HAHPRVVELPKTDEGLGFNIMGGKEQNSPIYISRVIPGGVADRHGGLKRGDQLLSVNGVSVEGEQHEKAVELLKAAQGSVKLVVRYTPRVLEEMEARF

T6: DLG3_3, Q92796
T6 sequence (Q92796 374-475, limits assumed, looked up): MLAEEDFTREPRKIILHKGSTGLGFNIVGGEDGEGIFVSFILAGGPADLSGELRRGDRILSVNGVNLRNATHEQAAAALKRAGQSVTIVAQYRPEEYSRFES

T7: LIN7C, Q9NUP9
T7 sequence (Q9NUP9 88-185, limits assumed, looked up): T5 sequence (Q9HAP6 88-185, limits assumed, looked up) with A2S, D13E, V35I, V40I, Q65H, S79K, R89K, A96S

T8: NHERF3_3, Q5T2W1
T8 sequence (Q5T2W1 238-333, limits assumed, looked up): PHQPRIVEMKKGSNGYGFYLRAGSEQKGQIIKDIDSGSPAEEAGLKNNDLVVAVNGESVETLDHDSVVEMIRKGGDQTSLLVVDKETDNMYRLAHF

B1: SLC26A3, P40879 (peptide)
chain: VYEVPVETKF
B2: CLDN10, P78369 (peptide)
chain: SKQFDKNAYV

Legend:
Assay in all cases: holdup assay
Design in all cases: key: below the threshold = too weak to quantify, mostly under pKd 3.1 to 4
Settings in all cases: plain residues with an end cap or a label only (N-terminal biotin on a linker: ado-ado)
[1] = molecular target: FRMPD2_1, Q68DX3
Chain of FRMPD2_1, Q68DX3 (Q68DX3 770-861): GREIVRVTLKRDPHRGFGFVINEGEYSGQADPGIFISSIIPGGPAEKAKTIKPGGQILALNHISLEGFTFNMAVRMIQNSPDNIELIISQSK

[2] = molecular target: T1, APBA1_2, Q02410
[3] = molecular target: MAGI1_2, Q96QZ7
Chain of MAGI1_2, Q96QZ7 (Q96QZ7 456-580): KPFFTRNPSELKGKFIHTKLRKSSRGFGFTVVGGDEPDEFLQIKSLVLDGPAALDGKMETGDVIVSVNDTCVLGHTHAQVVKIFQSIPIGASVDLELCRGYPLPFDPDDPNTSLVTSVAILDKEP

[4] = molecular target: MAGI2_3, Q86UL8
Chain of MAGI2_3, Q86UL8 (Q86UL8 600-682): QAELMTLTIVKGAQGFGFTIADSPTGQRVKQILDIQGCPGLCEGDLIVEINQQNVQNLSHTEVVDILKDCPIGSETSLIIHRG

[5] = molecular target: Inadl_1, Q8NI35
Chain of Inadl_1, Q8NI35 (Q8NI35 113-229): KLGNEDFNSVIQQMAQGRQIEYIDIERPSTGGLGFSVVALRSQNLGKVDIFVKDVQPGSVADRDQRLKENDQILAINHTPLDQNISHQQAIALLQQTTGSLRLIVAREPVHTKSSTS

[6] = molecular target: Inadl_8, Q8NI35
Chain of Inadl_8, Q8NI35 (Q8NI35 1425-1530): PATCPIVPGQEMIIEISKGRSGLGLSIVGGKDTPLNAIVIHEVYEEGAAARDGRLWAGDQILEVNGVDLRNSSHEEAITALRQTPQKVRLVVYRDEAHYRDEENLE

[7] = molecular target: T2, SNTA1, Q13424
[8] = molecular target: MAGI3_2, Q5TCQ9
Chain of MAGI3_2, Q5TCQ9 (Q5TCQ9 398-503): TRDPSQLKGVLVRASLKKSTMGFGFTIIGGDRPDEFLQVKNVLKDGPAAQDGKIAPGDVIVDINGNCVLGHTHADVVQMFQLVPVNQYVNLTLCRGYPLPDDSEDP

[9] = molecular target: T3, RHPN1, Q8TCX5
[10] = molecular target: ARHGEF12, Q9NZN5-2
Chain of ARHGEF12, Q9NZN5-2 (Q9NZN5 other isoform, or with tags, fused parts or gaps): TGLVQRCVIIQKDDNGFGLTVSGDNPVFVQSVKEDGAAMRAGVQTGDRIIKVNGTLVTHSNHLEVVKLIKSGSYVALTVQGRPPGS

[11] = molecular target: T4, HTRA3, P83110
[12] = molecular target: MAST2, Q6P0Q8
Chain of MAST2, Q6P0Q8 (Q6P0Q8 1099-1202): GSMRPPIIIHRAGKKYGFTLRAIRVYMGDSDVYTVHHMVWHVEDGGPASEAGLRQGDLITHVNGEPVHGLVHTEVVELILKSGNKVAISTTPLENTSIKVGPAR

[13] = molecular target: T5, LIN7B, Q9HAP6
[14] = molecular target: NHERF4_4, Q86UT5
Chain of NHERF4_4, Q86UT5 (Q86UT5 464-550): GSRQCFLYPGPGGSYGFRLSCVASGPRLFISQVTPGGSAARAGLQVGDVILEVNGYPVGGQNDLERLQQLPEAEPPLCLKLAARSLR

[15] = molecular target: LNX1_2, Q8TBB1
Chain of LNX1_2, Q8TBB1 (Q8TBB1 371-470): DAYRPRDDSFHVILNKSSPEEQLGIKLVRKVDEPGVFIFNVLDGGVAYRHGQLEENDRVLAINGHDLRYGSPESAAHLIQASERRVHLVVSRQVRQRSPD

[16] = molecular target: GORASP1, Q9BQQ3
Chain of GORASP1, Q9BQQ3 (Q9BQQ3 1-208): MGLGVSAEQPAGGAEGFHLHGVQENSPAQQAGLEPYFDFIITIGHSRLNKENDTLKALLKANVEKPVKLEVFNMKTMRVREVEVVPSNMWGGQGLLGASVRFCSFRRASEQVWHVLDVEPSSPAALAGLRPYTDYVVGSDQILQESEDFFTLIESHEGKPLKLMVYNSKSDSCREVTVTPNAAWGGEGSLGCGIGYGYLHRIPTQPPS

[17] = molecular target: FRMPD2_2, Q68DX3
Chain of FRMPD2_2, Q68DX3 (Q68DX3 944-1038): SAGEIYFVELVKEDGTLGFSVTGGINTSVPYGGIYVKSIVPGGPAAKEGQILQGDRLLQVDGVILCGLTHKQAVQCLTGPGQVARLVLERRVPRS

[18] = molecular target: DLG4_3, P78352
Chain of DLG4_3, P78352 (P78352 306-403): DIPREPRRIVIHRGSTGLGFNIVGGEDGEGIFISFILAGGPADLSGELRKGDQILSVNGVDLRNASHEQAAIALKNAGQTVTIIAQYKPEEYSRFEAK

[19] = molecular target: T6, DLG3_3, Q92796
[20] = molecular target: Inadl_6, Q8NI35
Chain of Inadl_6, Q8NI35 (Q8NI35 1058-1167): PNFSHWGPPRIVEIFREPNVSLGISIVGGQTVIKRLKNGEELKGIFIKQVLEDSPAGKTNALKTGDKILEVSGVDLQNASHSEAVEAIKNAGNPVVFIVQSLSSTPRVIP

[21] = molecular target: Inadl_4, Q8NI35
Chain of Inadl_4, Q8NI35 (Q8NI35 547-651): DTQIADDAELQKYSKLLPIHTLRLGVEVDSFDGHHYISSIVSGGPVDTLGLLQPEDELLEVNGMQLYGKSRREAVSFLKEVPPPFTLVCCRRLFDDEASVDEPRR

[22] = molecular target: Inadl_10, Q8NI35
Chain of Inadl_10, Q8NI35 (Q8NI35 1673-1763): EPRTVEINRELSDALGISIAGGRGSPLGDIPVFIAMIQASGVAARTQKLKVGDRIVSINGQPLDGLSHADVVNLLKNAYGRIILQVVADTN

[23] = molecular target: PARD3_3, Q8TEW0
Chain of PARD3_3, Q8TEW0 (Q8TEW0 582-685): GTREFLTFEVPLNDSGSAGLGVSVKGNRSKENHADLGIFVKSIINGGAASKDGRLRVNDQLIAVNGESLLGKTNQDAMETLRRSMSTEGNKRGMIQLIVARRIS

[24] = molecular target: GOPC, Q9HD26
[25] = molecular target: DLG1_1, Q12959
[26] = molecular target: DLG2_2, Q15700
Chain of DLG2_2, Q15700 (Q15700 189-283): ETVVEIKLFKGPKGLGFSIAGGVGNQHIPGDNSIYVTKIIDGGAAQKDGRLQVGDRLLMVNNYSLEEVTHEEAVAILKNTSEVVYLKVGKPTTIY

[27] = molecular target: FRMPD3, Q5JV73
Chain of FRMPD3, Q5JV73 (Q5JV73 12-100): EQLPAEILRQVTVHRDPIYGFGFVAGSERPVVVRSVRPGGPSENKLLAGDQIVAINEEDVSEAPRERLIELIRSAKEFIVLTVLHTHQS

[28] = molecular target: T7, LIN7C, Q9NUP9
[29] = molecular target: LNX1_3, Q8TBB1
Chain of LNX1_3, Q8TBB1 (Q8TBB1 500-596): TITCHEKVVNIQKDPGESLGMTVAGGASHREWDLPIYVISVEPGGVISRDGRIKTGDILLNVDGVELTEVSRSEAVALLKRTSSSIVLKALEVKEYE

[30] = molecular target: T8, NHERF3_3, Q5T2W1
[31] = molecular target: GRIP2_3, Q9C0E4
Chain of GRIP2_3, Q9C0E4 (Q9C0E4 238-339): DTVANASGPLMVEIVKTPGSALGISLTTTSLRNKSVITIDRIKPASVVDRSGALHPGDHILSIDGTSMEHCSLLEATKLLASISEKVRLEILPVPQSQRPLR

Binder | pKd [1] | pKd [2] | pKd [3] | pKd [4] | pKd [5] | pKd [6] | pKd [7] | pKd [8] | pKd [9] | pKd [10] | pKd [11] | pKd [12] | pKd [13] | pKd [14] | pKd [15] | pKd [16] | pKd [17] | pKd [18] | pKd [19] | pKd [20] | also measured
B1 | below the threshold | 3.58 | below the threshold | below the threshold | below the threshold | below the threshold | below the threshold | below the threshold | 4.03 | below the threshold | below the threshold | 5.48 | 4.21 | below the threshold | below the threshold | below the threshold | below the threshold | below the threshold | below the threshold | below the threshold | pKd [21]: below the threshold; pKd [22]: below the threshold; pKd [23]: below the threshold; pKd [24]: below the threshold; pKd [25]: below the threshold; pKd [26]: below the threshold; pKd [27]: below the threshold; pKd [28]: 4.01; pKd [29]: below the threshold; pKd [30]: 4.16; pKd [31]: below the threshold
B2 | below the threshold | 3.73 | below the threshold | below the threshold | below the threshold | 3.5 | 3.55 | 3.67 | 3.57 | 3.66 | 4.06 | 4.02 | below the threshold | below the threshold | below the threshold | below the threshold | below the threshold | below the threshold | below the threshold | below the threshold | pKd [21]: below the threshold; pKd [22]: below the threshold; pKd [23]: below the threshold; pKd [24]: below the threshold; pKd [25]: below the threshold; pKd [26]: below the threshold; pKd [27]: below the threshold; pKd [28]: below the threshold; pKd [29]: below the threshold; pKd [30]: below the threshold; pKd [31]: below the threshold
